This note sets out measurements from patent US20240352143A1 (Incyte, published 2024).

One test deals with T1, recombinant human CD73 (human, UniProt P21589 27-549).
T1 construct: Soluble recombinant CD73 (BPS Bioscience stock in the SPR); also called rhuCD73; human CD73, open conformation
T1 sequence: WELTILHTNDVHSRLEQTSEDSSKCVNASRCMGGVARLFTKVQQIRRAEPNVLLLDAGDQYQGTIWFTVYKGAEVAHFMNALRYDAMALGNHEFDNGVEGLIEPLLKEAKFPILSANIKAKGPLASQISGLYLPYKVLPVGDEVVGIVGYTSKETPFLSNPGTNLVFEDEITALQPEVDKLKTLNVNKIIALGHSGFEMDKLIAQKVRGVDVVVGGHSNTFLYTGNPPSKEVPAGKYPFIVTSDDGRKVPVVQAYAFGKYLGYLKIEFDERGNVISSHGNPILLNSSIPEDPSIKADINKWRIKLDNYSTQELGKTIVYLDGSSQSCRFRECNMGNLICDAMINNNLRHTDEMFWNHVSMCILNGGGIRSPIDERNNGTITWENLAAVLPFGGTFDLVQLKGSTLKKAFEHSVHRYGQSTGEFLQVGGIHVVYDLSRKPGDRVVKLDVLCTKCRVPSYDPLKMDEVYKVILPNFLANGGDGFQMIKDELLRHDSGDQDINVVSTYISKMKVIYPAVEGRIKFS
Put plainly: enzyme inhibition assay with recombinant full length CD73, adenosine by LC-MS, mixed-inhibition model. Here is the method:
Briefly, the inhibition potencies of the agents were measured in an enzyme assay using adenosine ¹³C₁₀, ¹⁵N₅ 5′-monophosphate sodium salt solution (650676, Sigma) as substrate and detecting product, adenosine by LC-MS. Antibody agents were serially diluted in buffer and a volume of 5 μL was transferred to a 96-well plate. 20 μL of 0.5 μM recombinant CD73 in assay buffer (25 mM Tris, 5 mM MgCl₂, 0.005% Brij35 pH 7.5) was added to the plate and pre-incubated for 2 hours at 25° C. The assay was initiated by the addition of a 25 μL solution containing AMP at various concentrations. The reactions were run for 0.5 hr at 25° C. and then quenched with 50 μL of methanol.

The target in test [1] is T2, cell surface CD73 on MDA-MB-231 and A375 cells (human, UniProt P21589 27-549).
T2 construct: A375: moderate level; also called cellular CD73
T2 sequence: T1 sequence
Put plainly: flow cytometry on MDA-MB-231 cells, antibody 30 min on ice, PE-conjugated secondary antibody, GMFI. Here is the method: The cells were stained with the indicated concentration of antibodies for 30 minutes on ice (FIG. 2A and FIG. 2B). Next, the cells were washed and stained using goat anti-mouse secondary conjugated to phycoerythrin (PE) for 30 minutes on ice. The cells were then washed and analyzed by flow cytometry. Geometric mean fluorescence intensity (GMFI) of CD73 staining was graphed (FIG. 2A and FIG. 2B).
(A flow cytometer gives signals particle by particle.)

B1: HzCL25 (antibody, human IgG1, kappa, N297A, V domains shown)
VH: EVQLVQSGAEVKKPGESLKISCKGSGYTFTSYGLSWVRQMPGKGLEWMGEIYPGSGNTYYNEKFKGQVTISADKSISTAYLQWSSLKASDTAMYYCARYDYLGSSYGFDYWGAGTTVTVSS
VL: DIVMTQSPDSLAVSLGERATINCKASQDVSTAVAWYQQKPGQPPKLLIYSASYRYSGVPDRFSGSGSGTDFTLTISSLQAEDVAVYYCQQHYNTPYTFGGGTKLEIKR
notes: Humanized IgG1/kappa with N297A (EU); also called HzCL25 IgG; humanized CL25
By Ki is commonly meant the equilibrium dissociation constant of an inhibitor or competing ligand from its target. With B1, in the test with recombinant human CD73, the Ki stood at 0.3 nM.

B2: CL25_hu_8-5 (antibody, V domains shown)
VH: QVQLVQSGAEVKKPGASVKVSCKASGYTFTSYGLSWVRQATGQGLEWMGEIYPGSGNTYYNEKFKGRVTMTRNTSISTAYMELSSLRSEDTAVYYCARYDYLGSSYGFDYWGAGTTVTVSS
VL: DIVMTQSPDSLAVSLGERATINCKASQDVSTAVAWYQQKPGQPPKLLIYSASYRYSGVPDRFSGSGSGTDFTLTISSLQAEDVAVYYCQQHYNTPYTFGGGTKLEIK
notes: Humanized CL25 variant
In general, EC50 (read off the curve) refers to the concentration that produces a half-maximal response. A higher EC50 (read off the curve) goes with a need for much substance. B2: the “EC50 (read off the curve)” value in test [1] is roughly 0.06 µg/mL.
